Assay results reported in article PMC10199020 (Nature Communications, 2023).

Molecular target: T1, NL-IL23R co-expressed with IL12Rβ1 (IL-23 receptor on cells) (UniProt Q5VWK5 24-629; P42701 24-662)
T1 construct: also called NL-IL23R and IL12Rβ1; NL-IL23R with IL12Rβ1; source: HEK293T, transiently transfected, on living cells
Assay: FRET or BRET; NanoBRET competition on living transfected HEK293T cells; 300 pM IL23-TMR displaced by unlabelled antagonist (concentration series or a single concentration); 1 h at 37 °C in HBSS with 1 mg/mL BSA
Conditions: one partner purified

T1 sequence (Q5VWK5 24-629, chain 1 of 2, other chains not shown): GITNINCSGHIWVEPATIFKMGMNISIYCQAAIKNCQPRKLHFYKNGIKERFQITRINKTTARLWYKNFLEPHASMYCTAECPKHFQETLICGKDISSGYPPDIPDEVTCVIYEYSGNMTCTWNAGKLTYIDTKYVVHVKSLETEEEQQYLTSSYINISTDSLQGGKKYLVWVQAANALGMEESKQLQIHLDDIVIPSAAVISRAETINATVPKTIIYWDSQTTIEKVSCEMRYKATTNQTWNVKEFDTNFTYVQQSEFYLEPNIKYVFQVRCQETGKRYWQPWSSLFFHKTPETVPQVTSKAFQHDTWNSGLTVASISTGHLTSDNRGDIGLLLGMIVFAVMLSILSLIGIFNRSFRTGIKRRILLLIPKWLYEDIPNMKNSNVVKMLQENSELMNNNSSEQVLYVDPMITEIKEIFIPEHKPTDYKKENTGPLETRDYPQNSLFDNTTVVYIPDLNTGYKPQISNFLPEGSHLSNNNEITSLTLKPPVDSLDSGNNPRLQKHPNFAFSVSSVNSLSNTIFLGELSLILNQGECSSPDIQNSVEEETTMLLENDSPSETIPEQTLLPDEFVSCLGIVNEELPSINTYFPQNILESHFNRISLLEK

- Ki: 12.4 nM
B1: IL12p40 (ligand, UniProt P29460 23-328, looked up)
chain: IWELKKDVYVVELDWYPDAPGEMVVLTCDTPEEDGITWTLDQSSEVLGSGKTLTIQVKEFGDAGQYTCHKGGEVLSHSLLLLHKKEDGIWSTDILKDQKEPKNKTFLRCEAKNYSGRFTCWWLTTISTDLTFSVKSSRGSSDPQGVTCGAATLSAERVRGDNKEYEYSVECQEDSACPAAEESLPIEVMVDAVHKLKYENYTSSFFIRDIIKPDPPKNLQLKPLKNSRQVEVSWEYPDTWSTPHSYFSLTFCVQVQGKSKREKKDRVFTDKTSATVICRKNASISVRAQDRYYSSSWSEWASVPCS
notes: source: bought: Peprotech (CHO produced)
